Source: the supplement of paper PMC10567573

B1: TRAF3IP2 (parent)
chain: FMEKRNQWLVSQLSAASPDTGHDS
B2: FAM46C (parent)
chain: VRSRLEEAGIKVHDVRLNGSAAGH

Variants of: B1
Experiment: protein stability index of a GFP-peptide fusion (GPS, HEK-293T) (PSI 1-6); higher = more stable
Settings: c terminus: a fixed tail appended
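Also: lentivirally expressed fusions sorted by FACS into six bins by GFP to DsRed ratio, PSI derived from sequencing read proportions per bin multiplied by bin number.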

Protein stability index: each site, then its substitutions
F1: I 3.72, G 4.26, P 3.95, L 3.88, C 3.98, H 4.84, N 4.36, D 5.05, E 4.77, A 4.91, K 3.71, M 3.56

Variants of: B2
Experiment: as above
Settings: c terminus: a fixed tail appended

Protein stability index of substitutions, site by site:
S3: W 2.05, H 3.76, L 1.28, Q 1.79, M 1.53, G 2.91, F 1.69, P 4.33, N 1.77, T 1.68, V 1.69
H24: M 2.15, W 3.51, A 3.06, I 2.01, N 3.78, S 3.07, E 3.66, P 2.76, Q 2.67, D 2.7
V12: H 3.6, W 2.77, E 4.73, N 4.04, L 2.56, A 3.93, P 4.06, Y 3.33, G 4.04, K 4.25, T 2.29, M 3.25, F 3.04, R 4.44, I 2.67, S 3.93, Q 4.06
G9: P 3.67, A 2.76, H 4.57, K 2.75, V 2.88, Q 3.88, C 3.03, T 2.97, R 3.88, D 3.89, M 3.15, Y 2.51, N 3.91, L 2.26, W 2.81, I 1.44, S 3.9
G19: L 2.16, M 1.83, D 2.26, S 2.09, H 2.54, P 1.55, I 3.83, R 2.22, A 2.19, E 3.77, V 1.79, T 1.74, Q 2.74, F 2.44
L17: Q 4.23, R 3.52, I 2.53, S 4.33, D 4, K 4.53, E 4.2, G 4.55, F 2.47, A 3.15, P 2.6, N 3.75
G23: H 2.85, I 1.6, T 3.09, N 2.55, W 2.18, E 2.3, Q 1.2, A 2.92, F 2.94, V 1.82, R 2.38, C 1.64, D 2.44, L 1.64, M 1.62, K 2.25, Y 2.18, S 2.6
A21: D 3.13, I 2.44, C 1.73, E 2.53, Y 1.56, T 2.51, G 3.12, K 4.25, R 2.83, W 1.56, P 1.8, S 2.32
E7: C 1.47, G 3.06, F 2.49, K 2.45, Y 2.8, H 2.37, R 3.32, P 3.78, S 2.5, I 2.48, W 1.99
I10: F 2.12, T 3.78, G 4.5, M 3.78, Y 1.75, S 3.9, A 3.63, R 3.41, V 4.24, C 2.89, P 4.56
R16: Q 2.68, D 4.37, Y 2.64, F 2.25, W 1.66, E 4.63, H 2.54, S 2.68, V 2.63, K 2.49
N18: T 1.87, C 2.64, W 2.13, L 1.16, D 2.81, S 4.1, M 3.59, Q 1.96, E 1.53, K 3.56, P 3.12, Y 1.62, V 2.7, G 2.02
V15: D 5.04, P 3.65, E 3.27, H 4.22, F 3.57, N 3.62, Y 2.61, A 4.24, L 2.76, M 3.41, C 2.42, S 3.35, I 2.06, R 3.75, K 3.44
S20: V 2.61, T 1.56, A 2.61, H 2.16, L 2, K 2.28, Q 2.63, G 1.94, F 1.35, N 3.2, C 2.45
E6: W 1.64, F 2.46, R 2.59, D 3.09, H 2.9, P 3.71, N 3.54, T 2.44, S 2.7, Y 2.1, M 1.71, Q 3.22, G 3.06, I 2.54
A8: W 2.19, R 1.96, N 3.17, M 2.58, I 1.66, Y 1.13, F 1.85, D 4.49, K 3.38, E 4.46, T 3.2
D14: T 2.8, Q 2.56, L 2.43, Y 2.74, S 2.64, M 1.79, P 4.54, I 1.29, H 3.04, W 1.62, C 2.33
R4: C 2.72, A 1.2, Q 3.52, Y 1.81, G 3.25, E 4.73, F 1.89, I 2.53, T 3.71, H 3.26, P 4.24, N 2.47, K 2.27, S 3, W 2.33
H13: N 2.74, Y 1.25, K 2.02, M 1.53, I 1.03, R 2.32, T 1.86, S 1.19, Q 2.42, F 1.74, W 2.02, A 2.98, E 4.06, D 1.02, G 4.18, P 4.08
L5: E 4.38, G 4.21, W 3.49, C 3.68, Y 3.04, A 4.34, D 4.35, N 4.03, S 4.34, R 4, T 4.59, V 3.7, K 3.97
V1: A 3.16, E 3.44, R 4.11, N 3.5, P 4.38, Y 3.57, L 1.33, S 4.18, D 4.33, Q 4.59, K 3.62, F 2.56, M 2.6, H 4.02
K11: C 2.73, M 2.01, L 3.83, G 3.13, H 1.99, E 2.89, T 4.08, I 1.63, Q 2.74, F 1.51, A 3.94, N 3.82, S 3.76, V 2.36, W 2.69
R2: C 2.3, I 2.15, D 4.25, F 2.04, A 3.04, V 2.13, G 3.36, E 3.85, M 2.33, T 3.82, Y 2.95, H 2.4, P 3.89, S 4.37, Q 2.58, W 2.28
A22: P 2.37, S 2.17, N 2.25, R 2.17, G 2.86, I 2.74, F 1.25, Q 2.1, Y 1.94, V 3.25, C 1.65, M 2.66, W 2.68, E 2.12
